{"source": "paper PMC7846560", "about": "“A promiscuous ancestral enzyme´s structure unveils protein variable regions of the highly diverse metallo-β-lactamase family” (Communications Biology, 2021)", "proteins": {"B1": {"name": "Igni18 (Ignicoccus hospitalis KIN4/I) (protein)", "chain": "MTTVKLTYFGHSAFHVEVDGVGIAIDPWITNPLSKTTLEDYLKNFKTDLVVITHAHEDHIGDALEIMRRTGAKFFSIHEIYVDLTQKGFQGIGANIGGPAKLDDVAPGLGIALTPATHSSYDKGVPTGAIIFKDGKALVYHAGDTGLFAEMQFIGELYAPKVALLPIGGHYTMDIEQALLATKLLRPEVVVPMHYNTFPPIRADPNEFKQKVESAGLAKVRVMEPGETVTFEF", "notes": "homotrimer; 233 protein residues in the structure"}}, "substrate": "O=[N+]([O-])c1ccc(OP(=O)(O)Oc2ccc([N+](=O)[O-])cc2)cc1", "test": "purified protein", "assay_type": "biochemical, Ignicoccus hospitalis", "conditions": "pH 8, 90 °C, Ni2+ is the required metal (optimal metal conditions)"}
{"protein": "B1", "values": [{"measurement": "Km", "value": 2.5, "unit": "µM"}, {"measurement": "kcat", "value": "6.72e-05", "unit": "s⁻¹"}]}
